Among the data in patent US6407214 (CELLTECH THERAPEUTICS, dated 2002) are Kd values, retold here.

In test [1] the target is T1, Lectin/EGF fragment from E-selectin (UniProt P16581 22-178, limits assumed).
T1 construct: domain: Lectin/EGF fragment; Soluble fragment; also called lectin/EGF fragment of E-selectin
T1 sequence (looked up): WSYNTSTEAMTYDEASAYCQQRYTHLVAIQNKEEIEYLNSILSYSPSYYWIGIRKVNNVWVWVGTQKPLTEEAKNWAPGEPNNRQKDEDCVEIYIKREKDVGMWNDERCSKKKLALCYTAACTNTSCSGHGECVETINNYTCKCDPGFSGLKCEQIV
Briefly: BIAcore SPR, antibody immobilised, lectin/EGF fragment in fluid phase; average. The protocol:
(§1) The affinity of both mouse and CDR-grafted ENA-2 for E-selectin were measured using a BIAcore TH biosensor (Pharmacia). This instrument combines miniaturised fluid delivery with an optical detection system based on surface plasmon resonance, to monitor protein interactions in real time (Chaiken et al, (1991) Anal. Biochem 201 197–210). The antibodies were immobilised at similar densities onto the sensor surface and the lectin/EGF fragment of E-selectin used as antigen in the fluid phase.
(§2) Assays of both antibodies were run at the same time using the same dilutions of antigen. The KD measurements are given below. KD Measurements
(In general: In SPR one partner is held on a chip, and binding of the other changes the refractive index at the surface.)

The target of test [2] is T1, Lectin/EGF fragment from E-selectin. Put plainly: BIAcore SPR, antibody immobilised, lectin/EGF fragment in fluid phase; duplicate. The protocol:
as §1, §2

“And” between values parts separate entries of the source, which are not always exact repeats. Identical values can stand only once.

B1: CDR-grafted ENA-2 (hENA-2 wt) (antibody, V domains shown)
VH: QVQLVQSGAEVKKPGSSVKVSCKASGYTFTDHEMHWVRQAPGQGLEWIGTIDPETGGTAYNQKFKGRATLTADKSTNTAYMDLSSLRSEDTAVYYCTVLRMDYWGQGTLVTVSS
VL: DIQMTQSPSTLSASVGDRVTITCKSSQSLLNSGNQQNYLTWYQQKPGKAPKLLIYWASTRESGVPDRFTGSGSGTDFTLTISSLQPDDFAVYYCQNDYDYPLTFGQGTKVEIKR
notes: CDR-grafted on human Eu frameworks, with a human kappa light chain (pENA204); Both gamma 1 (pENA212) and gamma 4 (pENA206) heavy chain vectors were made; The FcRI comparison uses the gamma 4 wild type; also called hEN2; gamma 4
One may read the Kd as the constant that tells how readily two partners part at equilibrium. On to B1, for which the Kd was 7.98 nM in test [1]; 7.8 nM and 8.17 nM in test [2].

B2: mouse ENA-2 (antibody, V domains shown)
VH: QVQLQQSGTELVRPGASVTLSCKASGYTFTDHEMHWVKQTPVLGLEWIGTIDPETGGTAYNQKFKGKATLTADKSSTTAYMDLRGLTSEDSAVFYCTVLRMDYWGQGTSLTVSA
VL: DIVMTQSPSSLTVTAGEKVTMRCKSSQSLLNSGNQQNYLTWYQQKPGQPPKLLIYWASTRESGVPDRFTGSGSGTDFTLTISSVQTEDLAVYYCQNDYDYPLTFGAGTKLEIKR
notes: Mouse IgG1/kappa whole antibody purified from hybridoma supernatant; The entries may include leader residues; also called mENA-2; murine ENA-2
With B2, the Kd in test [1] is 5.43 nM; in test [2] it was 5.38 nM and 5.48 nM.
